Laboratory results published in PMC2667502 (2009).

Target: TrkB/P75NTR complex (Mus musculus, UniProt P15209)
Experiment: dose-response of neuronal survival in ventral midbrain cultures

TrkB/P75NTR complex, sequence (P15209 32-821, chain 1 of 2): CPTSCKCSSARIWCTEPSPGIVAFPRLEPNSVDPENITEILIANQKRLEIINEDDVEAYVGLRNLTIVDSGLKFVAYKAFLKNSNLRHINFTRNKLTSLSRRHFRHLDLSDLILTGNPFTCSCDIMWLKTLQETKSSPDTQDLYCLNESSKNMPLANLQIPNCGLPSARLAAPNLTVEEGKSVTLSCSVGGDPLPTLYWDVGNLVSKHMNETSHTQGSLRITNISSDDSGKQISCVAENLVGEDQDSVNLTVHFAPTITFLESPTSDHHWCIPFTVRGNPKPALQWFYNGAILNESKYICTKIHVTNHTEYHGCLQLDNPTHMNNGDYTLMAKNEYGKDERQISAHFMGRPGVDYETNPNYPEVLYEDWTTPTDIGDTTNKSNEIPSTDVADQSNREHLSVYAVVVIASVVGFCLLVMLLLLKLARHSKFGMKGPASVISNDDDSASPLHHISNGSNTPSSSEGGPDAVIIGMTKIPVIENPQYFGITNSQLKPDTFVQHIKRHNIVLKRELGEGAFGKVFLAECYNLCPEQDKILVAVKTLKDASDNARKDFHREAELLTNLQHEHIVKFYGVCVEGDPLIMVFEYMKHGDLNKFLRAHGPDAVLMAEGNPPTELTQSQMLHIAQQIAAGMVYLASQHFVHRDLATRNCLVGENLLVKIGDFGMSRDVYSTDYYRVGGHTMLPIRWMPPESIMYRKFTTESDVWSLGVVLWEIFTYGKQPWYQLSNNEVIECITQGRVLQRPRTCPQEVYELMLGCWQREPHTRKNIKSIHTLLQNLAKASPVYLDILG
TrkB/P75NTR complex, sequence (chain, as listed by the source, chain 2 of 2): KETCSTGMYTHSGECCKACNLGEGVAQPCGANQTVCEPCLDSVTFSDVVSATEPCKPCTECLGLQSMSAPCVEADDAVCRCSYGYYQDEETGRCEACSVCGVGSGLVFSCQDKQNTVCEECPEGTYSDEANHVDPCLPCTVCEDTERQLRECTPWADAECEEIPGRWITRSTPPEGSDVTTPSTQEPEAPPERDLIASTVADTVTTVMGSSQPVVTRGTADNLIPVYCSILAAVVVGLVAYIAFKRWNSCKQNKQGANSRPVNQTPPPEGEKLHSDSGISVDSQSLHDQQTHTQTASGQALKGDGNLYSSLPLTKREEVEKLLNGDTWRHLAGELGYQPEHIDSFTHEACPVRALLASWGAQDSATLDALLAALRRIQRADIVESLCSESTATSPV

B1: BDNF (protein)
chain: HSDPARRGELSVCDSISEWVTAADKKTAVDMSGGTVTVLEKVPVSKGQLKQYFYETKCNPMGYTKEGCRGIDKRHWNSQCRTTQSYVRALTMDSKKRIGWRFIRIDTSCVCTLTIKRGR
**Q.** How did the Kd turn out when B1 was run?
**A.** ~2.5 nM
